Laboratory results taken from patent US20240059765A1 (ANNEXON, published 2024).

Biological target: human C1q (human, UniProt P02745 23-245; P02746 28-253; P02747 29-245)
Experiment: cell-based or functional assay

Chain of human C1q (P02745 23-245 limits assumed, chain 1 of 3): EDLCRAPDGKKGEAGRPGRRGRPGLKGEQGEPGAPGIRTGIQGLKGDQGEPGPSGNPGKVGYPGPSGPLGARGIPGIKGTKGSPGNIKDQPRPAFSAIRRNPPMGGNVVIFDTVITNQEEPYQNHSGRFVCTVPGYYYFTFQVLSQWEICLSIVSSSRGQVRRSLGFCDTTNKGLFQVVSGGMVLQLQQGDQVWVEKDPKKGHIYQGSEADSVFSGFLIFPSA
Chain of human C1q (P02746 28-253 limits assumed, chain 2 of 3): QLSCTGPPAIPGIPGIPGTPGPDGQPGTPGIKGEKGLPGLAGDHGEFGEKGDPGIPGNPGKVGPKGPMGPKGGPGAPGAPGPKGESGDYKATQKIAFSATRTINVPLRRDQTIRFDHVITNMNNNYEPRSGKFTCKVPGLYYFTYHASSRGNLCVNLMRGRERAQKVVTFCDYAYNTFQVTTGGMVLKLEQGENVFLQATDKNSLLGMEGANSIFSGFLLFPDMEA
Chain of human C1q (P02747 29-245 limits assumed, chain 3 of 3): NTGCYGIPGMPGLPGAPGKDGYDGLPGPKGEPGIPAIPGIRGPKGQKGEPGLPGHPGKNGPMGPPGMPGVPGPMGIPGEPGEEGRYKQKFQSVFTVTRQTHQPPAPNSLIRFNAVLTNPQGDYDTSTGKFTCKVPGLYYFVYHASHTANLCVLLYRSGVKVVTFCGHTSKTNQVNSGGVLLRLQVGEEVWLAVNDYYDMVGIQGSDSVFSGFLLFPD

- IC50 of block of the classical pathway (Weislab ELISA, IgM-coated wells, C5b-9 detection): ≤ 0.3 µg/mL
B1: FabA (Fab)
heavy: QVQLVQSGAELKKPGASVKVSCKSSGYHFTSYWMHWVKQAPGQGLEWIGVIHPNSGSINYNEKFESRVTITVDKSTSTAYMELSSLRSEDTAVYYCAGERDSTEVLPMDYWGQGTTVTVSSASTKGPSVFPLAPSSKSTSGGTAALGCLVKDYFPEPVTVSWNSGALTSGVHTFPAVLQSSGLYSLSSVVTVPSSSLGTQTYICNVNHKPSNTKVDKKVEPKSCDKTHT
light: DVQITQSPSSLSASLGERATINCRASKSINKYLAWYQQKPGKAPKLLIYSGSTLQSGIPARFSGSGSGTDFTLTISSLEPEDFAMYYCQQHNEYPLTFGQGTKLEIKRTVAAPSVFIFPPSDEQLKSGTASVVCLLNNFYPREAKVQWKVDNALQSGNSQESVTEQDSKDSTYSLSSTLTLSKADYEKHKVYACEVTHQGLSSPVTKSFNRGEC
